Test results published in paper PMC5698441 (Nature Communications, 2017).

Target: T1, biotinylated CaM (UniProt P0DP23 1-149, biotin (EZ link NHS Biotin, two-fold molar excess))
T1 construct: calmodulin, biotin-labelled; also called biotin-CaM; biotin-labeled CaM; source: purified CaM labelled with EZ link NHS Biotin, separated from free biotin by SEC
Assay: AlphaScreen or HTRF; competition: WT or mutant 20-mer peptides AKAP79 77-96 added to biotin-CaM (10 nM) and GST-AKAP79 (1-153); emission relative to untreated; peptide concentration not given
Details: both partners purified

- alphascreen emission relative to untreated samples: 0.17 ± 0.04 relative to untreated
B1: 20-mer AKAP79 (77–96) V86A (peptide)
peptide: GAWASLKRLATRRKRSESSK
notes: AKAP79 residues 77-96 with V86A; also called V86A peptide; source: synthetic peptide (Sigma PEPscreen)
